# Where a SMILES comes first, the peptide text is derived from it. Where no end group is shown, it is not given here. The star is where a group is joined. PNA(A) = NCCN(CC(=O)*)C(=O)Cn1cnc2c(N)ncnc21
# Columns and labels:
# PKC enzymes (cPKCs) = assay: Phosphorylation of MARCKS peptide by endogenous PKCs in IMR-32 cells; type: cell-based, human
# PKC alpha = PKC alpha (Homo sapiens, UniProt P17252); assay: Kinase-Glo Luminescent Kinase Assay; type: biochemical; conditions: for inhibition of PKC alpha activity (in words): Kinase-Glo
# Procedure: (§1) Compounds TIM 10, 11, 13, 14, 15, and 18-22 (see Table 28) were tested for their ability to inhibit the activity of PKC-alpha, beta 1, delta and epsilon isoforms the Kinase-Glo™ Luminescent Kinase Assay (Promega, Cat # V6712/3/4) following the manufacturer's instructions.
# PKC delta = PKC delta (Homo sapiens, UniProt Q05655); assay: Kinase-Glo Luminescent Kinase Assay; type: biochemical; conditions: for inhibition of PKC delta activity (in words): Kinase-Glo
# Procedure: as §1
# PKC epsilon = target: T1, PKC epsilon (Homo sapiens, UniProt Q02156); assay: Kinase-Glo Luminescent Kinase Assay; type: biochemical; design: purchased
# T1 sequence (Q02156 1-737): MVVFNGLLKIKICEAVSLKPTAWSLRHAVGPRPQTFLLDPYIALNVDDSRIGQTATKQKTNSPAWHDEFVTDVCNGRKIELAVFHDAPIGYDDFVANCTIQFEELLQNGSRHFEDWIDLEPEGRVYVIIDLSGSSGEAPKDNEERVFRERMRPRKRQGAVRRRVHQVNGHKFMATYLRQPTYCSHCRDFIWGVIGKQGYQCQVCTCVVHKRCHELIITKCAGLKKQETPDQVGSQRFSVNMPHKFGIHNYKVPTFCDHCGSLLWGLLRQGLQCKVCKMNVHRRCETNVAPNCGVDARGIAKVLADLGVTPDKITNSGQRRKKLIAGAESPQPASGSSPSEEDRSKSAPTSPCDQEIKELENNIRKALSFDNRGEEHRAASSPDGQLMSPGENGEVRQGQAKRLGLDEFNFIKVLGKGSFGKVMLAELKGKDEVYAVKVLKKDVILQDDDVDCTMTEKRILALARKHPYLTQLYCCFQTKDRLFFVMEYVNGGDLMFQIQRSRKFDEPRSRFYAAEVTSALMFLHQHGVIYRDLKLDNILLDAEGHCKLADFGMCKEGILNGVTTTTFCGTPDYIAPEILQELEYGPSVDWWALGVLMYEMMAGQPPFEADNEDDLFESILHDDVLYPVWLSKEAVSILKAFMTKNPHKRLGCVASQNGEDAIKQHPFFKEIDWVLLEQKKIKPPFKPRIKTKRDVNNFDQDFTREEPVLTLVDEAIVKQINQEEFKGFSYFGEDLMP
# Procedure: as §1
# PKC beta 1 = PKC beta 1 (Homo sapiens, UniProt P05771); assay: Kinase-Glo Luminescent Kinase Assay; type: biochemical; design: purchased; conditions: for inhibition of PKC beta 1 activity (in words): Kinase-Glo
# Procedure: as §1
# [1] = test system: peripheral blood lymphocytes; assay: Peripheral blood lymphocyte survival and blastogenic response to mitogens; type: cell-based; conditions: primary lymphocytes of pigs, mice and human
# [2] = test system: LS180 human colon cancer cells; assay: Survival of doxorubicin-resistant colon cancer cells, trypan blue exclusion; type: cell-based; conditions: 50 ng/ml; 72 hrs
# Procedure: Highly tumourigenic human colon cancer cells (LS180; ATCC # CL-187) which constitutively express multi-drug resistance (MDR) were used for this experiment. LS180 cells were seeded in 6 well plates at a density of 2×10^5. After a 24 hr recovery cells were treated with 50 ng/ml of doxorubicin, 2.5 μM compound TIM 10, or a combination of doxorubicin and compound TIM 10 (2.5 μM and 5 μM) for 72 hrs. Note that compound TIM 10 was added to the cell culture medium; no protocol was used to force the compound into the cell. The cells were then trypsinized and counted using the standard trypan blue dye exclusion assay.
# PKC-α [3] = target: T2, PKC-α (Homo sapiens, UniProt P17252); assay: Competition of PRE with PKC-α antibody binding on Western blot, Protocol A, IMR-32 lysate; design: endogenous PKC-α in (A) untreated human neuroblastoma (IMR-32) cells; endogenous in cells; host or cells: IMR-32 human neuroblastoma cells; conditions: IMR-32 cells
# Procedure: The ability of the PRE 1, 2 and 3 (see Table 3 above) to interfere with the binding of a PKC-α-specific polyclonal antibody to PKC-α was determined using the following protocol.
# (§2) Cell lysates from either IMR-32 (human neuroblastoma) cells or C6Cx43 cells (rat glioma transfected cells overexpressing connexin 43) were obtained using standard protocols and the proteins of the lysate were separated by SDS PAGE electrophoresis and electrotransferred onto a nitrocellulose membrane. The membrane was incubated for 30 minutes in blocking buffer (TBST) containing the test peptide at either 5× or 20× the concentrations of the primary antibody. A primary polyclonal antibody specific for PKC-α (Santa Cruz Biotechnology, Inc., CA) was then added (15 μg/ml) and the membrane incubated for a further 45 minutes. Finally, the primary antibody was detected with a secondary antibody conjugated to alkaline phosphatase using standard procedures. The intensity of the band corresponding to PKC-α was assessed by scanning and densitometry using the Gel-Pro software (Media Cybernetics) to obtain relative band intensities (average of 3 replicas). Control assays were conducted as described above except that blocking buffer without peptide was used.
# The results are expressed as relative band intensity and as a percentage of the intensity of the corresponding band in the control assay (“Relative intensity (%)”). “% inhibition” relates to the percentage of the PKC-α band that is inaccessible to the antibody.
# PKC-β [4] = target: T3, PKC-β (Homo sapiens, UniProt P05771); assay: Competition of PRE with PKC-β antibody binding, Protocol A, IMR-32 lysate
# T3 construct: PRE 2 and PRE 3 in IMR-32 Neuroblastoma Cells: Protocol A; endogenous in cells; host or cells: IMR-32 human neuroblastoma cells
# Procedure: as §2
# Peptides PRE 1, PRE 2 and PRE 3 (see Table 4) were tested for their ability to interfere with the binding of a PKC-β-specific polyclonal antibody (Santa Cruz Biotechnology, Inc.) to PKC-β using the general protocol described in Example 1. […] It is worth noting in this regard that PKC-α and PKC-β belong to the same sub-group of PKCs (cPKCs).
# PKC-β [5] = target: T3, PKC-β; assay: Competition of PRE with PKC-β antibody binding, Protocol B, IMR-32; conditions: 100 μg
# Procedure: The ability of the peptides PRE 2 and PRE 3 (see Table 4) to interfere with the binding of a PKC-α-specific polyclonal antibody (Santa Cruz Biotechnology, Inc.) to PKC-α was determined using a modified version of the protocol outlined above in which the test peptide was added directly to the cell extract prior to electrophoresis at a concentration of either 5× or 15× the concentration of the protein applied to each well of the gel for the Western blots (20 μg).
# Peptides PRE 2 and PRE 3 (see Table 4) were tested for their ability to interfere with the binding of a PKC-β-specific polyclonal antibody (Santa Cruz Biotechnology, Inc.) to PKC-β using the general protocol described in Example 3.
# PKC-α [6] = target: T2, PKC-α; assay: Competition of PRE with PKC-α antibody binding, Protocol B (peptide added to cell extract before electrophoresis), IMR-32; design: endogenous PKC-α in (A) untreated human neuroblastoma (IMR-32) cells; endogenous in cells; host or cells: IMR-32 human neuroblastoma cells; conditions: 100 μg
# Procedure: Peptides PRE 3 and PRE 4 (see Table 4) were tested for their ability to interfere with the binding of isoform-specific polyclonal antibodies (Santa Cruz Biotechnology, Inc.) to PKC-α, PKC-βI or PKC-βII using the general protocol described in Example 3.
# PKC beta 1, sequence (P05771 whole entry): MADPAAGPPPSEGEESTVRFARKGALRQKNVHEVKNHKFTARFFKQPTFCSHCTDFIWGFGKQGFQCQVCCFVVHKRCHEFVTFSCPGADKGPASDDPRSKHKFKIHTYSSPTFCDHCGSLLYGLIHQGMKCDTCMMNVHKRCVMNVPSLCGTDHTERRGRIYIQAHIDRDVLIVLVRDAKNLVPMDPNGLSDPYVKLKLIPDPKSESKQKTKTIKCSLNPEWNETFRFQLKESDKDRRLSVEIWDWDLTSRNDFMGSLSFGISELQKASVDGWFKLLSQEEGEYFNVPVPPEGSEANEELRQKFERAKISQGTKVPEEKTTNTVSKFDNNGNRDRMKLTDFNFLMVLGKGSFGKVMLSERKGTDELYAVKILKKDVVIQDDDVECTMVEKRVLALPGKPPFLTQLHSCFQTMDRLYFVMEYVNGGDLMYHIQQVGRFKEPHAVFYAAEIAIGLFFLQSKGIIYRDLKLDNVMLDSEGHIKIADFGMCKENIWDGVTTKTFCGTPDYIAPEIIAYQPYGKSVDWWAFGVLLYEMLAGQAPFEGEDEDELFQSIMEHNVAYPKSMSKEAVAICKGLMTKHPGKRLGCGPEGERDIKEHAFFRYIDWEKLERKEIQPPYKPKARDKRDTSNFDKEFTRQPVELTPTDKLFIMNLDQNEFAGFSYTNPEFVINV
# T3 sequence (P05771 whole entry): as above
# PKC delta, sequence (Q05655 whole entry): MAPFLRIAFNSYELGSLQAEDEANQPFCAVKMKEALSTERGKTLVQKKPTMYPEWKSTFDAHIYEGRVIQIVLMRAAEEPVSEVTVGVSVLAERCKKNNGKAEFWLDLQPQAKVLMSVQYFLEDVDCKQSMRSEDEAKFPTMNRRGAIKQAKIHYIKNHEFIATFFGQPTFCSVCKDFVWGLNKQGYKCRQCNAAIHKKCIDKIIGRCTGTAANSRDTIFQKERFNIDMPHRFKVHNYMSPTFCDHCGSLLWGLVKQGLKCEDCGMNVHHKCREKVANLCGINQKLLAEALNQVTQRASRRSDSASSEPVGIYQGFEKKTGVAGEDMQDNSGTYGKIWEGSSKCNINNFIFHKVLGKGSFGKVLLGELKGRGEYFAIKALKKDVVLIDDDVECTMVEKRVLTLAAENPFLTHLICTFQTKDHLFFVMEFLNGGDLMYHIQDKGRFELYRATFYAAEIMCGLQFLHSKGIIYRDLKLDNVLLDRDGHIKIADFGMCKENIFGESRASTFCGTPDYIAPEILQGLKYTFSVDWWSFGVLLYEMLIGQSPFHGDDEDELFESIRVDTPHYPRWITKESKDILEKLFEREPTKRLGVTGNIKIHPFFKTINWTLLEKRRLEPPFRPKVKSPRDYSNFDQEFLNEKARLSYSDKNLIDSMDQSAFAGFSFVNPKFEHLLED
compound,measurement,setting,value
Cn1c2ccccc2c2c3c(c4c5ccccc5n(CCC#N)c4c21)CNC3=O [Go6976],inactivation of cPKCs (MARCKS phosphorylation),PKC enzymes (cPKCs); 30 min,still very low
same,inactivation of cPKCs (phospho-MARCKS levels),PKC enzymes (cPKCs); 24 h,obvious
CC[C@H](C)[C@H](NC(=O)[C@H](CO)NC(=O)[C@@H](NC(=O)CNC(=O)[C@@H](NC(=O)[C@H](CC(C)C)NC(=O)[C@H](CC(N)=O)NC(=O)[C@H](CCC(N)=O)NC(=O)[C@H](C)NC(=O)[C@H](CC(=O)OC)NC(=O)[C@H](CCCCN)NC(=O)CNC(=O)CNC(=O)CNC(=O)CNC(=O)CNC(=O)CNC(=O)CNC(=O)[C@H](CC(C)C)NC(=O)[C@H](CCCNC(=N)N)NC(=O)[C@H](Cc1ccccc1)NC(=O)[C@H](CCCCNC(=O)CN(CCN)C(=O)Cn1cnc2c(N)ncnc21)NC(=O)[C@H](CCCNC(=N)N)NC(=O)[C@H](CCCNC(=N)N)NC(=O)[C@H](Cc1ccccc1)NC(C)=O)[C@@H](C)CC)[C@@H](C)CC)C(N)=O [TIM 15] (Ac-FRRK(PNA(A))FRLGGGGGGGKD(OMe)AQNLIGISI-NH2),inhibition at 15 µM,"PKC alpha; 15.0 μM, read-out: % Inhibition PKC-α",32.1%
same,inhibition at 30 µM,"PKC alpha; 30.0 μM, read-out: % Inhibition PKC-α",21.8%
same,inhibition at 15 µM,"PKC delta; 15.0 μM, read-out: % Inhibition PKC-δ",18.6%
same,inhibition at 30 µM,"PKC delta; 30.0 μM, read-out: % Inhibition PKC-δ",21.8%
same,inhibition at 15 µM,"PKC epsilon; 15.0 μM, read-out: % Inhibition PKC-ε",9%
same,inhibition at 30 µM,"PKC epsilon; 30.0 μM, read-out: % Inhibition PKC-ε",81%
same,inhibition at 15 µM,"PKC beta 1; 15.0 μM, read-out: % Inhibition PKC-βI",18.8%
same,inhibition at 30 µM,"PKC beta 1; 30.0 μM, read-out: % Inhibition PKC-βI",-69%
same,apoptosis of peripheral blood lymphocytes,[1],do not induce apoptosis
same,blastogenic response to mitogens,[1],do not drastically limit the blastogenic response
COc1cccc2c1C(=O)c1c(O)c3c(c(O)c1C2=O)C[C@@](O)(C(=O)CO)C[C@@H]3O[C@H]1C[C@H](N)[C@H](O)[C@H](C)O1 [doxorubicin],cell survival,[2],a large proportion of the cells survived
"Ac—FRRCFRL—(G)7—AKGIQEVKGGDAQNLIGISI—NH2 (Ac-FRRCFRLGGGGGGGAKGIQEVKGGDAQNLIGISI-NH2) [TIM 18, PRE 3 and PKI 4]",% Inhibition PKC-α,PKC alpha; 2.5 μM,16.4%
same,inhibition of PKC alpha activity (in words),PKC alpha,very potent inhibitor
same,% Inhibition PKC-δ,PKC delta; 5.0 μM,56.3%
same,% Inhibition PKC-δ,PKC delta; 30.0 μM,85.1%
same,inhibition of PKC delta activity (in words),PKC delta,inhibits the activity
same,inhibition of PKC epsilon activity (in words),PKC epsilon; Kinase-Glo,no effect
same,inhibition of PKC beta 1 activity (in words),PKC beta 1,inhibits the activity
"Ac—FRRCFRL—(G)7—KDAQNLIGISI—NH2 (Ac-FRRCFRLGGGGGGGKDAQNLIGISI-NH2) [TIM 21, PRE 4 and PKI 4]",% Inhibition PKC-α,PKC alpha; 15.0 μM,64.3%
same,% Inhibition PKC-α,PKC alpha; 30.0 μM,95.2%
same,inhibition of PKC alpha activity (in words),PKC alpha,at a lesser extent
same,% Inhibition PKC-δ,PKC delta; 2.5 μM,26.2%
same,inhibition of PKC delta activity (in words),PKC delta,exceptionally good inhibitor
same,% Inhibition PKC-ε,PKC epsilon; 5.0 μM,−5%
same,% Inhibition PKC-ε,PKC epsilon; 30.0 μM,52%
same,% Inhibition PKC-βI,PKC beta 1; 5.0 μM,11%
same,% Inhibition PKC-βI,PKC beta 1; 30.0 μM,13.9%
same,inhibition of PKC beta 1 activity (in words),PKC beta 1,not active
KDAQNLIGISL-NH2 [PRE 2],Band Intensity,PKC-α [3]; 75 μg,0.917
same,Inhibition (%),PKC-α [3]; 75 μg,56.1%
same,Relative Intensity (%),PKC-α [3]; 75 μg,43.9%
same,Band Intensity,PKC-α [3]; 300 μg,0.192
same,Inhibition (%),PKC-α [3]; 300 μg,90.9%
same,Relative Intensity (%),PKC-α [3]; 300 μg,9.1%
same,Band Intensity,PKC-β [4]; 75 μg,0.800
same,Inhibition (%),PKC-β [4]; 75 μg,31.0%
same,Relative Intensity (%),PKC-β [4]; 75 μg,69.0%
same,Band Intensity,PKC-β [4]; 300 μg,0.403
same,Inhibition (%),PKC-β [4]; 300 μg,65.3%
same,Relative Intensity (%),PKC-β [4]; 300 μg,34.7%
same,Band Intensity,PKC-β [5],0.0322
same,Inhibition (%),PKC-β [5],54.7%
same,Relative Intensity (%),PKC-β [5],45.3%
same,Inhibition (%),PKC-α [6]; Example 3,99.9%
same,Relative Intensity (%),PKC-α [6]; Example 3,0.135%
same,Band Intensity,PKC-α [6]; Example 3 (control 0.759),0.0103

# — patent publication US20110039770A1, “INHIBITORS OF PROTEIN KINASE C ISOFORMS AND USES THEREOF” (PHARMAGAP INC., priority 2005, published 2011)
